# Measurements reported in publication PMC3999930, “Characterization of a SAM-dependent fluorinase from a latent biosynthetic pathway for fluoroacetate and 4-fluorothreonine formation in Nocardia brasiliensis” (F1000Research, 2014).
# B1: NobA, SAM-dependent fluorinase (5'-fluoro-5'-deoxyadenosine synthase) from Nocardia brasiliensis ATCC 700358 (enzyme, UniProt W8JNL4 1-300, looked up)
# chain: MTTTNGRRPIIAFMSDLGITDDSVAQCKGLMLSVCPDVTIVDICHTMQPWDVEEGARYIVDLPRLFPEGTVFATTTYPATGTTARSVALRIAHASKGGARGQWAGSGAGFERKEGSYIYIAPNNGLLTTVIKEHGYLEAYEVSSPEVIPEQPEPTFYSREMVALPSAHLAAGFPLEKVGRRLADDEIVRFERKDPELVADHDLVGYVTNIDHPFGNVWTNIHRTDLEKLGVGYGTKLRITLDGVLPFELPLSPTFADAGEIGAAVAYLSSRGYLALARNAASLAYPYNLKAGISVQVKVG
# notes: NobA, fluorinase of Nocardia brasiliensis ATCC 700358 (HUJEG-1); NdeI-HindIII fragment in pET28a; no removal of the His tag is described; also called 5'-FDA synthase; source: E. coli BL21 (DE3), purified (Ni-NTA, dialysis)
# Biological target: the molecule itself
# Assay: SEC; Superdex 200 GL, 50 mM phosphate buffer pH 7.8, 1 ml/min; native mass estimated from a calibration curve of standard proteins (29-669 kDa)
protein,measurement,value
B1,stoichiometry N,6
